From patent publication US20240025999A1 (BIOVENTURES, published 2024)

B1: TCR of clonotype 1 (TCR beta CDR3 CASSPTSGGLTWDEQYF, SEQ ID NO:1), HPV 16 E6 91-115 specific T cell clonotype of subject 6 (TCR, V domains shown)
V domain 1: AQSVAQPEDQVNVAEGNPLTVKCTYSVSGNPYLFWYVQYPNRGLQFLLKYITGDNLVKGSYGFEAEFNKSQTSFHLKKPSALVSDSALYFCAVRAPSGSARQLTFGSGTQLTVLP
V domain 2: EAGVAQSPRYKIIEKRQSVAFWCNPISGHATLYWYQQILGQGPKLLIQFQNNGVVDDSQLPKDRFSAERLKGVDSTLKIQPAKLEDSAVYLCASSPTSGGLTWDEQYFGPGTRLTVTE
B2: TCR of clonotype 4 (TCR beta CDR3 CASSWEAGQETQYF, SEQ ID NO:4), HPV 16 E6 91-115 specific T cell clonotype of subject 6 (TCR, V domains shown)
V domain 1: GENVEQHPSTLSVQEGDSAVIKCTYSDSASNYFPWYKQELGKGPQLIIDIRSNVGEKKDQRIAVTLNKTAKHFSLHITETQPEDSAVYFCAASAPGRTDKLIFGTGTRLQVFP
V domain 2: KAGVTQTPRYLIKTRGQQVTLSCSPISGHRSVSWYQQTPGQGLQFLFEYFSETQRNKGNFPGRFSGRQFSNSRSEMNVSTLELGDSALYLCASSWEAGQETQYFGPGTRLLVLE
B3: TCR of clonotype 3 (TCR beta CDR3 CASSFPGENEQFF, SEQ ID NO:3), HPV 16 E6 91-115 specific T cell clonotype of subject 6 (TCR, V domains shown)
V domain 1: GDSVTQMEGPVTLSEEAFLTINCTYTATGYPSLFWYVQYPGEGLQLLLKATKADDKGSNKGFEATYRKETTSFHLEKGSVQVSDSAVYFCALTLSGSARQLTFGSGTQLTVLP
V domain 2: DAGVIQSPRHEVTEMGQEVTLRCKPISGHNSLFWYRQTMMRGLELLIYFNNNVPIDDSGMPEDRFSAKMPNASFSTLKIQPSEPRDSAVYFCASSFPGENEQFFGPGTRLTVLE
B4: TCR of clonotype 2 (TCR beta CDR3 CASSHNSGREGNEQFF, SEQ ID NO:2), HPV 16 E6 91-115 specific T cell clonotype of subject 6 (TCR, V domains shown)
V domain 1: GENVEQHPSTLSVQEGDSAVIKCTYSDSASNYFPWYKQELGKRPQLIIDIRSNVGEKKDQRIAVTLNKTAKHFSLHITETQPEDSAVYFCAPRVTGGGNKLTFGTGTQLKVEL
V domain 2: GAGVSQSPRYKVAKRGQDVALRCDPISGHVSLFWYQQALGQGPEFLTYFQNEAQLDKSGLPSDRFFAERPEGSVSTLKIQRTQQEDSAVYLCASSHNSGREGNEQFFGPGTRLTVLE

Biological target: T1, HPV 16 E6 91-115 region, given as three overlapping 15-mer peptides (91-105 YGTTLEQQYNKPLCD, SEQ ID NO:21); … (human papillomavirus type 16)
T1 peptide: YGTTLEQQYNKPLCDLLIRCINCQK
Assay: cell-based or functional assay

Point of comparison: B3, “Frequency (%) of the clonotype among IFN-gamma secreting cells sorted after peptide stimulation” value 9.8%. Against it:
- B1 — higher, 33.3%
- B2 — lower, 8.6%
- B4 — higher, 17%
